System: Escherichia coli TOP10
Experiment: shrunken log2 fold change of peptide-encoding DNA abundance (4.5 h post-induction vs induction); higher = less antimicrobial activity (less host growth inhibition)
Details: time post-induction: 4.5 h; library: site-saturation at positions 5, 18, 19, 20
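Note: peptides expressed intracellularly from a pBAD plasmid library in pooled LB shake-flask culture, induced with 0.3% L-arabinose, DNA abundance read by NGS, three biological replicates, DESeq2 with apeglm shrinkage.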

RRIRGRPPRLPRPRPRPMQVPRP and RRIRDRPPRLPRPRPRPSIEPRP are within 0.2 log units of each other in “shrunken log2 fold change” value: 0.162 for the first, 0.089 for the second.

Compared with RRIRLRPPRLPRPRPRPPMLPRP, RRIRIRPPRLPRPRPRPNVDPRP is lower in “shrunken log2 fold change” value: -0.0338 for the first, -0.272 for the second.

Compared with RRIRVRPPRLPRPRPRPGPGPRP, RRIRVRPPRLPRPRPRPLNMPRP is lower in “shrunken log2 fold change” value: 0.298 for the first, -1.14 for the second.

Compared with RRIRRRPPRLPRPRPRPMVHPRP, RRIRTRPPRLPRPRPRPEEEPRP is higher in “shrunken log2 fold change” value: 0.113 for the first, 0.385 for the second.

Compared with RRIRKRPPRLPRPRPRPGRYPRP, RRIRLRPPRLPRPRPRPGYMPRP is lower in “shrunken log2 fold change” value: 0.426 for the first, -0.459 for the second.

RRIRGRPPRLPRPRPRPLNNPRP and RRIRERPPRLPRPRPRPAPCPRP are within 0.2 log units of each other in “shrunken log2 fold change” value: -0.109 for the first, 0.0086 for the second.

Compared with RRIRTRPPRLPRPRPRPDKAPRP, RRIRWRPPRLPRPRPRPYHPPRP is lower in “shrunken log2 fold change” value: -0.0271 for the first, -1.08 for the second.

RRIRPRPPRLPRPRPRPRNMPRP and RRIRGRPPRLPRPRPRPSWGPRP are within 0.2 log units of each other in “shrunken log2 fold change” value: -0.126 for the first, 0.0507 for the second.

RRIRRRPPRLPRPRPRPFRNPRP and RRIRYRPPRLPRPRPRPDSDPRP are within 0.2 log units of each other in “shrunken log2 fold change” value: -0.0392 for the first, -0.179 for the second.

Compared with RRIRKRPPRLPRPRPRPWFHPRP, RRIRMRPPRLPRPRPRPTDLPRP is higher in “shrunken log2 fold change” value: -0.838 for the first, 0.225 for the second.

RRIRDRPPRLPRPRPRPWFCPRP and RRIRSRPPRLPRPRPRPFALPRP are within 0.2 log units of each other in “shrunken log2 fold change” value: -0.272 for the first, -0.0971 for the second.

RRIRSRPPRLPRPRPRPVCYPRP and RRIRHRPPRLPRPRPRPSVLPRP are within 0.2 log units of each other in “shrunken log2 fold change” value: -0.268 for the first, -0.242 for the second.

Going from RRIRYRPPRLPRPRPRPPEPPRP to RRIRDRPPRLPRPRPRPLPAPRP, the “shrunken log2 fold change” value rises from 0.35 to 0.574.

RRIRDRPPRLPRPRPRPCVLPRP and RRIRFRPPRLPRPRPRPKRNPRP are within 0.2 log units of each other in “shrunken log2 fold change” value: 0.0171 for the first, 0.203 for the second.

RRIRKRPPRLPRPRPRPQNEPRP and RRIRQRPPRLPRPRPRPEPQPRP are within 0.2 log units of each other in “shrunken log2 fold change” value: -0.0827 for the first, 0.00762 for the second.

Compared with RRIRGRPPRLPRPRPRPPHPPRP, RRIRIRPPRLPRPRPRPAAFPRP is lower in “shrunken log2 fold change” value: 0.643 for the first, -0.234 for the second.

RRIRERPPRLPRPRPRPVESPRP and RRIRQRPPRLPRPRPRPQCAPRP are within 0.2 log units of each other in “shrunken log2 fold change” value: -0.0262 for the first, -0.183 for the second.

First: RRIRNRPPRLPRPRPRPISHPRP
Second: RRIRERPPRLPRPRPRPWVDPRP
The “shrunken log2 fold change” value of the first is lower: -0.963 for the first, -0.665 for the second.

RRIRHRPPRLPRPRPRPDTYPRP and RRIRMRPPRLPRPRPRPCDYPRP are within 0.2 log units of each other in “shrunken log2 fold change” value: -0.24 for the first, -0.163 for the second.

Going from RRIRVRPPRLPRPRPRPVVEPRP to RRIRMRPPRLPRPRPRPLGKPRP, the “shrunken log2 fold change” value rises from -0.112 to 0.0958.

Compared with RRIRIRPPRLPRPRPRPTIKPRP, RRIRKRPPRLPRPRPRPDPQPRP is higher in “shrunken log2 fold change” value: -0.611 for the first, 0.729 for the second.

Compared with RRIRGRPPRLPRPRPRPMVKPRP, RRIRVRPPRLPRPRPRPNPRPRP is higher in “shrunken log2 fold change” value: 0.00813 for the first, 0.21 for the second.

Going from RRIRHRPPRLPRPRPRPCFQPRP to RRIRYRPPRLPRPRPRPYGFPRP, the “shrunken log2 fold change” value rises from -0.558 to -0.182.

Going from RRIRHRPPRLPRPRPRPMETPRP to RRIRSRPPRLPRPRPRPYMTPRP, the “shrunken log2 fold change” value falls from -0.0865 to -0.586.

Compared with RRIRHRPPRLPRPRPRPTDMPRP, RRIRCRPPRLPRPRPRPEEAPRP is higher in “shrunken log2 fold change” value: 0.151 for the first, 0.642 for the second.

Compared with RRIRYRPPRLPRPRPRPFFHPRP, RRIRLRPPRLPRPRPRPNYKPRP is higher in “shrunken log2 fold change” value: -1.2 for the first, -0.752 for the second.

First: RRIRSRPPRLPRPRPRPGCWPRP
Second: RRIRWRPPRLPRPRPRPIVFPRP
The “shrunken log2 fold change” value of the first is higher: 0.593 for the first, -0.125 for the second.

RRIRVRPPRLPRPRPRPMAFPRP and RRIRNRPPRLPRPRPRPCHYPRP are within 0.2 log units of each other in “shrunken log2 fold change” value: -0.00965 for the first, 0.00673 for the second.

First: RRIRIRPPRLPRPRPRPMEQPRP
Second: RRIRMRPPRLPRPRPRPREVPRP
The “shrunken log2 fold change” value of the first is lower: -0.00783 for the first, 1.8 for the second.

First: RRIRIRPPRLPRPRPRPLPMPRP
Second: RRIRRRPPRLPRPRPRPLHAPRP
The “shrunken log2 fold change” value of the first is lower: -0.204 for the first, 1.06 for the second.

Going from RRIRVRPPRLPRPRPRPVSKPRP to RRIRRRPPRLPRPRPRPYNFPRP, the “shrunken log2 fold change” value falls from -0.249 to -0.642.

Compared with RRIRMRPPRLPRPRPRPGVNPRP, RRIRPRPPRLPRPRPRPTHRPRP is higher in “shrunken log2 fold change” value: -0.0818 for the first, 0.223 for the second.

RRIRTRPPRLPRPRPRPIVWPRP and RRIRERPPRLPRPRPRPGNLPRP are within 0.2 log units of each other in “shrunken log2 fold change” value: -0.0862 for the first, -0.17 for the second.

RRIRFRPPRLPRPRPRPADTPRP and RRIRRRPPRLPRPRPRPCHSPRP are within 0.2 log units of each other in “shrunken log2 fold change” value: -0.109 for the first, 0.00408 for the second.

First: RRIRYRPPRLPRPRPRPGNTPRP
Second: RRIRFRPPRLPRPRPRPCIRPRP
The “shrunken log2 fold change” value of the first is lower: -1.18 for the first, -0.0335 for the second.

Compared with RRIRRRPPRLPRPRPRPRMRPRP, RRIRDRPPRLPRPRPRPNLFPRP is lower in “shrunken log2 fold change” value: 0.744 for the first, 0.0627 for the second.

Compared with RRIRERPPRLPRPRPRPRKYPRP, RRIRYRPPRLPRPRPRPPVAPRP is higher in “shrunken log2 fold change” value: -0.201 for the first, 0.0771 for the second.

With RRIRLRPPRLPRPRPRPNSPPRP the “shrunken log2 fold change” value was -0.418.

From the supplement of paper PMC9112550, “Optimization of the antimicrobial peptide Bac7 by deep mutational scanning” (BMC Biology, 2022)
